Test results published in PMC2063550.

Key:
[1] = biological target: GST-PERK, wild-type PERK kinase domain fused to GST (active, autophosphorylated) (mouse) (UniProt Q9Z2B5); assay: pull-down
[2] = biological target: GST-PERK, wild-type PERK kinase domain fused to GST (active, autophosphorylated) (mouse) (UniProt Q9Z2B5)

UniProt Q9Z2B5, sequence (Q9Z2B5 537-1114): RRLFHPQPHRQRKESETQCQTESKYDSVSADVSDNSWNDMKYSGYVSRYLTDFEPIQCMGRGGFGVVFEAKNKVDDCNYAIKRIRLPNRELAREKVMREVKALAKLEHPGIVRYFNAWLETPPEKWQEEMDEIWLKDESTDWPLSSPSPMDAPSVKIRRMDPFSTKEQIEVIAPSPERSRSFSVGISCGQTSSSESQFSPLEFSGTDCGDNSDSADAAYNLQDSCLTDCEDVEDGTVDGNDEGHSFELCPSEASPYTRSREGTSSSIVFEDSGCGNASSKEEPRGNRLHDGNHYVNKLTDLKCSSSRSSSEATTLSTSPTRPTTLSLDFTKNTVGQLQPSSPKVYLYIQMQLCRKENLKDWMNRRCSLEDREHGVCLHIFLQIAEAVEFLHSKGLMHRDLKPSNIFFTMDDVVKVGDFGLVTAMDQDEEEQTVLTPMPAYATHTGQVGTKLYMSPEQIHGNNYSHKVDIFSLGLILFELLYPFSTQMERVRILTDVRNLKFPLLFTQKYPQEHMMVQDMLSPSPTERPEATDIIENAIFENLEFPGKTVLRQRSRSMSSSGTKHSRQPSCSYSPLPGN

KCl concentration at the peak of elution [1] [mM KCl]	stoichiometry N (eIF2α-NTD per PERK) [2]	Substance
225	> 1	eIF2α-NTD (NH2-terminal domain of eIF2α, residues 1-185, three solubilizing mutations, nonphosphorylated) (domain or fragment)
125	–	phosphorylated eIF2α-NTD (P–eIF2α-NTD, phosphorylated by PERK on serine 51) (domain or fragment)
